Source: patent publication US20210253718A1 (MODMAB THERAPEUTICS, published 2021)
Substitutions are numbered along the chain they refer to. Values belong to the binder of their own block, whether it stands above or below them.

How the values were obtained:
[1] = molecular target: T1, FZD1 cysteine-rich domain (CRD), MYC-tagged and GPI-anchored on CHO cells (human); experiment: flow cytometry, CHO-CRD cells;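 note: flow cytometry of Fab binding to CHO cells overexpressing a Frizzled CRD, with binding defined as median fluorescence over twice that of CHO cells lacking any Frizzled CRD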
Protocol: (§1) Binding was measured via flow cytometry analysis of CHO cells overexpressing CRD of FZD1, FZD2, FZD3, FZD4, FZD5, FZD6, FZD7, FZD8, FZD9 or FZD10. Median fluorescence values are shown.

[2] = molecular target: T2, FZD2 cysteine-rich domain (CRD), MYC-tagged and GPI-anchored on CHO cells (human, UniProt Q14332 35-161); experiment: flow cytometry, CHO-CRD cells;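 note: flow cytometry of Fab binding to CHO cells overexpressing a Frizzled CRD, with binding defined as median fluorescence over twice that of CHO cells lacking any Frizzled CRD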
Protocol: as §1

[3] = molecular target: T3, FZD3 cysteine-rich domain (CRD), MYC-tagged and GPI-anchored on CHO cells (human, UniProt Q9NPG1 24-150, GPI anchor); experiment: flow cytometry, CHO-CRD cells;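 note: flow cytometry of Fab binding to CHO cells overexpressing a Frizzled CRD, with binding defined as median fluorescence over twice that of CHO cells lacking any Frizzled CRD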
T3 construct: domain: cysteine-rich domain (CRD); also called FZD3 CRD; CHO-myc-FZDGPI; not shown: MYC tag and GPI anchor signal
T3 sequence (looked up): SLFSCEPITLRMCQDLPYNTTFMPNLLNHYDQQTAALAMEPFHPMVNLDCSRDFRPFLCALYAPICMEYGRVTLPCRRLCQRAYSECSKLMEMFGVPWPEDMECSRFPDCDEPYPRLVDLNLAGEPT

[4] = molecular target: T4, FZD5 cysteine-rich domain (CRD), MYC-tagged and GPI-anchored on CHO cells (human, UniProt Q13467 29-156, GPI anchor); experiment: flow cytometry, CHO-CRD cells;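 note: flow cytometry of Fab binding to CHO cells overexpressing a Frizzled CRD, with binding defined as median fluorescence over twice that of CHO cells lacking any Frizzled CRD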
T4 construct: also called FZD5 CRD; CHO-myc-FZDGPI; not shown: MYC tag and GPI anchor signal
T4 sequence: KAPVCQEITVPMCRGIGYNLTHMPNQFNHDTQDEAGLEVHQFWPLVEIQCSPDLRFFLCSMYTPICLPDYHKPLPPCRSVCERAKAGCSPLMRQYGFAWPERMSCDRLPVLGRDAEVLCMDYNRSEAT

[5] = molecular target: T5, FZD6 cysteine-rich domain (CRD), MYC-tagged and GPI-anchored on CHO cells (human, UniProt O60353 20-146, GPI anchor); experiment: flow cytometry, CHO-CRD cells
T5 construct: also called FZD6 CRD; CHO-myc-FZDGPI; not shown: MYC tag and GPI anchor signal
T5 sequence: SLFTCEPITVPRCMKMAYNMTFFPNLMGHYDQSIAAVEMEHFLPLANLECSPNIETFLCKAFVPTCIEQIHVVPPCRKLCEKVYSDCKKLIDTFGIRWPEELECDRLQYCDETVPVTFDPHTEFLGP

[6] = molecular target: T6, FZD7 cysteine-rich domain (CRD), MYC-tagged and GPI-anchored on CHO cells (human, UniProt O75084 45-169); experiment: flow cytometry, CHO-CRD cells
Protocol: as §1

[7] = molecular target: T7, FZD8 cysteine-rich domain (CRD), MYC-tagged and GPI-anchored on CHO cells (human, UniProt Q498S8 31-155 (rat entry), GPI anchor); experiment: flow cytometry, CHO-CRD cells
T7 construct: also called FZD8 CRD; CHO-myc-FZDGPI; not shown: MYC tag and GPI anchor signal
T7 sequence: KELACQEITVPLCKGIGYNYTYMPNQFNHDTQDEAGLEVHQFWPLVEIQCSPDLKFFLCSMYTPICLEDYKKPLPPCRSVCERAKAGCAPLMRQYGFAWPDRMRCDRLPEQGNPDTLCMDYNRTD

[8] = molecular target: T8, FZD9 cysteine-rich domain (CRD), MYC-tagged and GPI-anchored on CHO cells (human, UniProt O00144 35-161, GPI anchor); experiment: flow cytometry, CHO-CRD cells
T8 construct: also called FZD9 CRD; CHO-myc-FZDGPI; not shown: MYC tag and GPI anchor signal
T8 sequence: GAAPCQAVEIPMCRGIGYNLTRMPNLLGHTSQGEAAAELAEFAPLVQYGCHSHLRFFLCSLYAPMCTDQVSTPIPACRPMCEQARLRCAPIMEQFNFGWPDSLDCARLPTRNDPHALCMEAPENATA

[9] = molecular target: T9, FZD10 cysteine-rich domain (CRD), MYC-tagged and GPI-anchored on CHO cells (human, UniProt Q9ULW2 30-156, GPI anchor); experiment: flow cytometry, CHO-CRD cells
T9 construct: also called FZD10 CRD; CHO-myc-FZDGPI; not shown: MYC tag and GPI anchor signal
T9 sequence: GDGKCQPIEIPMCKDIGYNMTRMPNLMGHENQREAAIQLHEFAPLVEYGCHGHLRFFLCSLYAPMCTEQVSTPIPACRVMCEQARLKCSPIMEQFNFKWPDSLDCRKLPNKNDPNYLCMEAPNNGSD

[10] = molecular target: T1, FZD1 cysteine-rich domain (CRD), …; experiment: immunofluorescence, CHO-CRD cells
[11] = molecular target: T2, FZD2 cysteine-rich domain (CRD), …; experiment: immunofluorescence, CHO-CRD cells
[12] = molecular target: T3, FZD3 cysteine-rich domain (CRD), …; experiment: immunofluorescence, CHO-CRD cells
[13] = molecular target: T5, FZD6 cysteine-rich domain (CRD), …; experiment: immunofluorescence, CHO-CRD cells
[14] = molecular target: T6, FZD7 cysteine-rich domain (CRD), …; experiment: immunofluorescence, CHO-CRD cells
[15] = molecular target: T8, FZD9 cysteine-rich domain (CRD), …; experiment: immunofluorescence, CHO-CRD cells
[16] = molecular target: T9, FZD10 cysteine-rich domain (CRD), …; experiment: immunofluorescence, CHO-CRD cells
[17] = molecular target: T10, FZD4 cysteine-rich domain (CRD), MYC-tagged and GPI-anchored on CHO cells (human, UniProt Q9ULV1 42-167, GPI anchor); experiment: flow cytometry, CHO-CRD cells
T10 construct: also called FZD4 CRD; CHO-myc-FZDGPI; not shown: MYC tag and GPI anchor signal
T10 sequence: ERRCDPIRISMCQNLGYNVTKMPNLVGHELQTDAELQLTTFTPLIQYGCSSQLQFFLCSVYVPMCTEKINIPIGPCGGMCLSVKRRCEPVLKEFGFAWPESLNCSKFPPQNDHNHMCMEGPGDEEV

[18] = molecular target: T10, FZD4 cysteine-rich domain (CRD), …; experiment: immunofluorescence, CHO-CRD cells

B1: Fab-2922 (Fab, V domains shown)
VH: EVQLVESGGGLVQPGGSLRLSCAASGFNIYSSYMHWVRQAPGKGLEWVASISPYSGYTSYADSVKGRFTISADTSKNTAYLQMNSLRAEDTAVYYCARTVRGSKKPYFSGWAMDYWGQGTLVTVSS
VL: DIQMTQSPSSLSASVGDRVTITCRASQSVSSAVAWYQQKPGKAPKLLIYSASSLYSGVPSRFSGSRSGTDFTLTISSLQPEDFATYYCQQSFVYPYLITFGQGTKVEIK
notes: Fab; also called Fv-2922
median fluorescence [1]: 4.83
median fluorescence [2]: 4.78
median fluorescence [3]: 4.1
median fluorescence [4]: 56.2
median fluorescence [5]: 3.68
median fluorescence [6]: 2.62
median fluorescence [7]: 9.14
median fluorescence [8]: 2.89
median fluorescence [9]: 2.74
binding result [10]: no binding
binding result [11]: no binding
binding result [12]: no binding
binding result [13]: no binding
binding result [14]: no binding
binding result [15]: no binding
binding result [16]: no binding

B2: Fab-2920 (Fab, V domains shown)
VH: EVQLVESGGGLVQPGGSLRLSCAASGFNISYYYIHWVRQAPGKGLEWVASIYPSSGSTSYADSVKGRFTISADTSKNTAYLQMNSLRAEDTAVYYCARGGMDYWGQGTLVTVSS
VL: DIQMTQSPSSLSASVGDRVTITCRASQSVSSAVAWYQQKPGKAPKLLIYSASSLYSGVPSRFSGSRSGTDFTLTISSLQPEDFATYYCQQWFAGALITFGQGTKVEIK
notes: Fab
median fluorescence [1]: 5.73
median fluorescence [2]: 4.57
median fluorescence [3]: 3.75
median fluorescence [17]: 4.22
median fluorescence [4]: 28.6
median fluorescence [5]: 3.02
median fluorescence [6]: 4.91
median fluorescence [7]: 7.5
median fluorescence [8]: 2.89
median fluorescence [9]: 2.94
binding result [10]: no binding
binding result [11]: no binding
binding result [12]: no binding
binding result [18]: no binding
binding result [13]: no binding
binding result [14]: no binding
binding result [15]: no binding
binding result [16]: no binding

B3: Fab-2934 (Fab, V domains shown)
VH: B2 VH with Y32S, I34M, P53S, G100A, M101I
VL: B2 VL with F92Y, A93H, G94Y, A95G
notes: Fab; also called Fv-2934
median fluorescence [1]: 61.5
median fluorescence [3]: 3.28
median fluorescence [17]: 4.78
median fluorescence [4]: 34.3
median fluorescence [5]: 2.86
median fluorescence [6]: 3.52
median fluorescence [7]: 29.4
median fluorescence [8]: 2.71
median fluorescence [9]: 2.67
binding result [12]: no binding
binding result [18]: no binding
binding result [13]: no binding
binding result [14]: no binding
binding result [15]: no binding
binding result [16]: no binding

B4: Fab-2923 (Fab, V domains shown)
VH: B2 VH with I29L, S30Y, I34M, P53S, G100A
VL: B1 VL with S91W, F92Y, V93G, P95S, Y96A
notes: Fab; also called Fv-2923
median fluorescence [1]: 6.04
median fluorescence [2]: 7.91
median fluorescence [3]: 6.67
median fluorescence [4]: 36.9
median fluorescence [5]: 4.33
median fluorescence [6]: 6.04
median fluorescence [7]: 11.9
median fluorescence [8]: 4.83
median fluorescence [9]: 4.22
binding result [10]: no binding
binding result [11]: no binding
binding result [12]: no binding
binding result [13]: no binding
binding result [14]: no binding
binding result [15]: no binding
binding result [16]: no binding

The remaining lines, values ahead:

median fluorescence [1]: 3.05
median fluorescence [2]: 3.52
median fluorescence [3]: 3
median fluorescence [17]: 3.65
median fluorescence [4]: 23.5
median fluorescence [5]: 2.57
median fluorescence [6]: 2.55
median fluorescence [7]: 7.04
median fluorescence [8]: 2.74
median fluorescence [9]: 2.5
binding result [10]: no binding
binding result [11]: no binding
binding result [12]: no binding
binding result [18]: no binding
binding result [13]: no binding
binding result [14]: no binding
binding result [15]: no binding
binding result [16]: no binding
B5: Fab-2936 (Fab, V domains shown)
VH: B2 VH with I34M, P53S, G99A, G100A
VL: B2 VL with F92Y, G94A, A95S
notes: Fab; also called Fv-2936

median fluorescence [1]: 4.07
median fluorescence [2]: 6.79
median fluorescence [3]: 4.49
median fluorescence [4]: 29.2
median fluorescence [5]: 3.37
median fluorescence [6]: 3
median fluorescence [7]: 15.8
median fluorescence [8]: 3.52
median fluorescence [9]: 3.34
binding result [10]: no binding
binding result [11]: no binding
binding result [12]: no binding
binding result [13]: no binding
binding result [14]: no binding
binding result [15]: no binding
binding result [16]: no binding
B6: Fab-2935 (Fab, V domains shown)
VH: B2 VH with S30Y, G99A, G100A, M101F
VL: B1 VL with S91W, F92Y, V93G, Y94G, P95Y, Y96A
notes: Fab; also called Fv-2935
